Target: HLA-A*02 (human)
Test: UV-exchange b2m ELISA

VLNPLITAV
peptide exchange yield: 50 to 75%

VTFKEYVTV
peptide exchange yield: 20 to 49%

FLLPFSTVYL
peptide exchange yield: 50 to 75%

ILLDLTDNRL
peptide exchange yield: 50 to 75%

ALNPELVQA
peptide exchange yield: 20 to 49%

ILAPFSVDL
peptide exchange yield: 50 to 75%

NALDKVLSV
peptide exchange yield: 50 to 75%

ALFAPLVHL
peptide exchange yield: 50 to 75%

SLPNGKPVSV
peptide exchange yield: 50 to 75%

AIQDEIRSV
peptide exchange yield: 50 to 75%

KLYEADFVL
peptide exchange yield: 20 to 49%

GLLPLLHRA
peptide exchange yield: > 75%

ALNIATHVL
peptide exchange yield: 50 to 75%

AMIEEVFEA
peptide exchange yield: 20 to 49%

KLLDPQEFTL
peptide exchange yield: 50 to 75%

SLFSDEFKV
peptide exchange yield: 50 to 75%

YTLDIPVLFGV
peptide exchange yield: > 75%

TLIDEQDIPLV
peptide exchange yield: 50 to 75%

SLADTNSLAVV
peptide exchange yield: 50 to 75%

FLAVGLVDV
peptide exchange yield: 50 to 75%

SQFPLPLAV
peptide exchange yield: 20 to 49%

SLFPDSLIV
peptide exchange yield: 20 to 49%

RLMEENWNA
peptide exchange yield: 50 to 75%

ALQEELTEL
peptide exchange yield: 50 to 75%

ILAKDLFEI
peptide exchange yield: > 75%

ALFENTPKA
peptide exchange yield: 20 to 49%

SLSNRLYYL
peptide exchange yield: 50 to 75%

SQIPAQPSV
peptide exchange yield: 20 to 49%

SLATKIVEA
peptide exchange yield: 50 to 75%

YLLPLLPAL
peptide exchange yield: 50 to 75%

KLIFSVEAV
peptide exchange yield: 50 to 75%

TLLQRLTEV
peptide exchange yield: 50 to 75%

QVIEDSTGV
peptide exchange yield: 20 to 49%

YLLDPSITL
peptide exchange yield: 50 to 75%

LLYPEPWSV
peptide exchange yield: > 75%

ILDHEVPSL
peptide exchange yield: 50 to 75%

FLGPRIIGL
peptide exchange yield: 50 to 75%

GLSQITNQL
peptide exchange yield: 50 to 75%

FLTAINYLL
peptide exchange yield: 50 to 75%

YLDLSHNQL
peptide exchange yield: 50 to 75%

SISDNVWEV
peptide exchange yield: 50 to 75%

KMVGLVVAI
peptide exchange yield: 50 to 75%

AVGPVHNSV
peptide exchange yield: 20 to 49%

ILFHGVFYA
peptide exchange yield: 50 to 75%

AIVKEIVNI
peptide exchange yield: 20 to 49%

TITETTVEV
peptide exchange yield: 50 to 75%

TVVTRLDEI
peptide exchange yield: 20 to 49%

FLLATEVVTV
peptide exchange yield: > 75%

ALLERGELFV
peptide exchange yield: 50 to 75%

LLLGDSALYL
peptide exchange yield: 50 to 75%

ALFDSLRHV
peptide exchange yield: 50 to 75%

ALMAMLVYV
peptide exchange yield: 20 to 49%

LLFSRLCGA
peptide exchange yield: > 75%

HLLEGSVGV
peptide exchange yield: 50 to 75%

VQLDSIEDLEV
peptide exchange yield: 50 to 75%

AVIKFLELL
peptide exchange yield: 50 to 75%

KLMPGTYTL
peptide exchange yield: > 75%

GIVAHIQEV
peptide exchange yield: 50 to 75%

ALSPSYLTV
peptide exchange yield: 50 to 75%

YTLREVDTV
peptide exchange yield: 20 to 49%

VLHSKFWVV
peptide exchange yield: 50 to 75%

FLHDEKEGIYI
peptide exchange yield: 50 to 75%

SLFETAWEA
peptide exchange yield: 50 to 75%

FLVDGSYSI
peptide exchange yield: 50 to 75%

TLDEKVAEL
peptide exchange yield: 50 to 75%

GIAGSLKTV
peptide exchange yield: 50 to 75%

VLIDPQWVLTA
peptide exchange yield: 50 to 75%

LLDSVSRL
peptide exchange yield: < 20%

FVDPNTQEKV
peptide exchange yield: 20 to 49%

TLFGYSVVL
peptide exchange yield: 50 to 75%

YIKTELISV
peptide exchange yield: 50 to 75%

KLEENGDLYL
peptide exchange yield: > 75%

SVVPDVRSV
peptide exchange yield: 20 to 49%

TVFTDHMLTV
peptide exchange yield: 20 to 49%

TMDSVLVTV
peptide exchange yield: 50 to 75%
